Assays:
[1] = target: T1, TGFβR2.B3.F8 I-OnuI HE variant (HEK 293T expression) (Artificial Sequence (parent Ophiostoma …)); test: cell_activity; rate of generating iRFP-positive cells; chromosomal reporter in HEK 293T
T1 chain: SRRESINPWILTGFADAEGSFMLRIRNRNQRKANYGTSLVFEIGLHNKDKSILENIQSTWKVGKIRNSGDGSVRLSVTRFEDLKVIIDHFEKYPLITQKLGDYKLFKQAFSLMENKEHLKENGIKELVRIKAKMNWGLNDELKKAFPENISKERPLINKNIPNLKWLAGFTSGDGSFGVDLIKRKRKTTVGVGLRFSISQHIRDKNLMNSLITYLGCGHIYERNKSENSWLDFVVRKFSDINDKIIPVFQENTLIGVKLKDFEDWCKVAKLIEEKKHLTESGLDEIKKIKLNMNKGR
Protocol: The activity of reprogrammed I-OnuI HEs that target exon 6 of the TGFβR2 gene was measured using a chromosomally integrated fluorescent reporter system (Certo et. al., 2011). Fully reprogrammed I-OnuI HEs that bind and cleave the TGFβR2 target sequence (SEQ ID NO: 11) were cloned into mammalian expression plasmids and then individually transfected into a HEK 293T […] cell line that contained the TGFβR2 target sequence upstream of an out-of-frame gene encoding the fluorescent iRFP protein. Cleavage of the embedded target site by the HE and the accumulation of indels following DNA repair via the non-homologous end joining (NHEJ) pathway results in approximately one out of three repaired loci placing the fluorescent reporter gene back “in-frame”. The percentage of iRFP fluorescing HEK 293T cells is therefore used a readout of endonuclease activity at the chromosomally embedded target sequence. […] FIG. 3 (top graph).
A secondary I-OnuI variant library was next generated by performing random mutagenesis on the TGFβR2.B3 HE variant (e.g., SEQ ID NO: 6). Display-based flow sorting was performed under more stringent cleavage conditions in an effort to isolate variants with improved catalytic efficiency. […] FIG. 3 (bottom graph).

[2] = target: T2, TGFβR2.B3.F8 I-OnuI HE variant (yeast surface display) (Artificial Sequence (parent Ophiostoma …)); test: flow; sub-nanomolar affinity stated; yeast surface affinity titration, exact value only in figure; details: tags: yeast surface display
T2 chain: T1 chain

B1: TGFβR2 exon 6 I-OnuI HE variant target site (dsDNA)
DNA 1: CGACCAGAAATTCCCAGCTTCT
DNA 2: AGAAGCTGGGAATTTCTGGTCG
In the case of B1, the activity [1] is reported as ~4 fold vs TGFβR2.B3 and the Kd [2] is reported as < 1 nM.
